Laboratory results: patent US6893829B2, “Human leukocyte 12-lipoxygenase and its role in the pathogenesis of disease states” (City of Hope, priority 1992, dated 2005)

Assays:
[1] = system: VEGF protein in MCF-7 cells; assay: VEGF protein expression in breast cancer cells (immunoblot); type: cell-based, human; conditions: MCF-7, 24 hours
Procedure: FIG. 8 illustrates the dose-dependent effect of platelet-derived growth factor (PDGF) on vascular endothelial growth factor (VEGF) protein (42 kD) expression in MCF-7 breast cancer cells. Nearly confluent MCF-7 cells were serum starved for 24 hours by placing in DME medium+0.4% FCS and 0.2% BSA. This medium was then freshly replaced and the cells incubated for another 24 hours with PDGF. At the end of the incubation, the cell monolayers were washed with ice-cold PBS, scraped into PBS and pelleted by centrifugation. The cell pellets were then lysed and equal amounts of protein (50 μg) subjected to electrophoresis and immunoblotting to detect VEGF using a specific antibody from Santa Cruz Biotechnology. Detection was by a chemiluminiscent technique.
FIG. 9 illustrates the effect of epidermal growth factor (EGF) and the 12-lipoxygenase product 12-HETE on VEGF protein expression in the MCF-7 breast cancer cell line MCF-7. MCF-7 cells were treated with EGF and 12-HETE for 24 hours and VEGF protein identified as described in the legend to FIG. 8.

[2] = system: 12-LO activity in MCF-7 cells; assay: 12-HETE formation in MCF-7 cells; conditions: four hours, basal 257±10 pg/10^6 cells
[3] = system: leukocyte-type 12-LO in MCF-7 cells; assay: 12-LO protein and mRNA expression in MCF-7 cells; conditions: EGF 50 ng/ml, 24 hours

B1: EGF: Epidermal Growth Factor (protein, UniProt P01133 23-1207, looked up)
Pro-epidermal growth factor: PQHWSCPEGTLAGNGNSTCVGPAPFLIFSHGNSIFRIDTEGTNYEQLVVDAGVSVIMDFHYNEKRIYWVDLERQLLQRVFLNGSRQERVCNIEKNVSGMAINWINEEVIWSNQQEGIITVTDMKGNNSHILLSALKYPANVAVDPVERFIFWSSEVAGSLYRADLDGVGVKALLETSEKITAVSLDVLDKRLFWIQYNREGSNSLICSCDYDGGSVHISKHPTQHNLFAMSLFGDRIFYSTWKMKTIWIANKHTGKDMVRINLHSSFVPLGELKVVHPLAQPKAEDDTWEPEQKLCKLRKGNCSSTVCGQDLQSHLCMCAEGYALSRDRKYCEDVNECAFWNHGCTLGCKNTPGSYYCTCPVGFVLLPDGKRCHQLVSCPRNVSECSHDCVLTSEGPLCFCPEGSVLERDGKTCSGCSSPDNGGCSQLCVPLSPVSWECDCFPGYDLQLDEKSCAASGPQPFLLFANSQDIRHMHFDGTDYGTLLSQQMGMVYALDHDPVENKIYFAHTALKWIERANMDGSQRERLIEEGVDVPEGLAVDWIGRRFYWTDRGKSLIGRSDLNGKRSKIITKENISQPRGIAVHPMAKRLFWTDTGINPRIESSSLQGLGRLVIASSDLIWPSGITIDFLTDKLYWCDAKQSVIEMANLDGSKRRRLTQNDVGHPFAVAVFEDYVWFSDWAMPSVMRVNKRTGKDRVRLQGSMLKPSSLVVVHPLAKPGADPCLYQNGGCEHICKKRLGTAWCSCREGFMKASDGKTCLALDGHQLLAGGEVDLKNQVTPLDILSKTRVSEDNITESQHMLVAEIMVSDQDDCAPVGCSMYARCISEGEDATCQCLKGFAGDGKLCSDIDECEMGVPVCPPASSKCINTEGGYVCRCSEGYQGDGIHCLDIDECQLGEHSCGENASCTNTEGGYTCMCAGRLSEPGLICPDSTPPPHLREDDHHYSVRNSDSECPLSHDGYCLHDGVCMYIEALDKYACNCVVGYIGERCQYRDLKWWELRHAGHGQQQKVIVVAVCVVVLVMLLLLSLWGAHYYRTQKLLSKNPKNPYEESSRDVRSRRPADTEDGMSSCPQPWFVVIKEHQDLKNGGQPVAGEDGQAADGSMQPTSWRQEPQLCGMGTEQGCWIPVSSDKGSCPQVMERSFHMPSYGTQTLEGGVEKPHSLLSANPLWQQRALDPPHQMELTQ
modifications: Pro-epidermal growth factor
**Q.** For B1, which VEGF protein expression [1] is on record?
**A.** The VEGF protein expression was “induced”.

**Q.** And the “formation of 12-HETE” value ([2]; serum-starved MCF-7, EGF 50 ng/ml)?
**A.** Its value is 462 ± 15 pg.

**Q.** What about the “formation of 12-HETE” value ([2]; serum-starved MCF-7, EGF 100 ng/ml) of the same molecule?
**A.** Its value is 593 ± 46 pg.

**Q.** What about the “levels of 12-LO protein (72 kD) and 12-LO mRNA” value [3] of the same molecule?
**A.** The value was “marked increase”.
